Results: the supplement of paper PMC10567573

B1: PLK2 (parent)
chain: MELLRTITYQPAASTKMCEQALGK
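Also: lentivirally expressed fusions sorted by FACS into six bins by GFP to DsRed ratio, PSI derived from sequencing read proportions per bin multiplied by bin number.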

Variants of: B1
Test: protein stability index of a GFP-peptide fusion (GPS, HEK-293T) (PSI 1-6); higher = more stable
Conditions: c terminus: a fixed tail appended
Variant MEHLRTITYQPAASTKMCEQALGK [L3H] has a protein stability index of 1.62. MEILRTITYQPAASTKMCEQALGK [L3I] gave a protein stability index of 2.63. For MEKLRTITYQPAASTKMCEQALGK [L3K], the protein stability index was 1.37. For MEMLRTITYQPAASTKMCEQALGK [L3M], the protein stability index was 3.04. Variant MENLRTITYQPAASTKMCEQALGK [L3N] has a protein stability index of 1.88. With MEPLRTITYQPAASTKMCEQALGK [L3P] the protein stability index was 3.11. For MEQLRTITYQPAASTKMCEQALGK [L3Q], the protein stability index was 2.08. MERLRTITYQPAASTKMCEQALGK [L3R] gave a protein stability index of 2.24. Work on MESLRTITYQPAASTKMCEQALGK [L3S] yielded a protein stability index of 2.21. With METLRTITYQPAASTKMCEQALGK [L3T] the protein stability index was 1.94. MEVLRTITYQPAASTKMCEQALGK [L3V] gave a protein stability index of 2.49. Variant MEWLRTITYQPAASTKMCEQALGK [L3W] has a protein stability index of 2.48. Work on MEYLRTITYQPAASTKMCEQALGK [L3Y] yielded a protein stability index of 2.07. MELARTITYQPAASTKMCEQALGK [L4A] gave a protein stability index of 2.55. MELCRTITYQPAASTKMCEQALGK [L4C] showed a protein stability index of 2.02. MELDRTITYQPAASTKMCEQALGK [L4D] showed a protein stability index of 4.39. MELERTITYQPAASTKMCEQALGK [L4E] showed a protein stability index of 3.69. Work on MELFRTITYQPAASTKMCEQALGK [L4F] yielded a protein stability index of 2.05. With MELGRTITYQPAASTKMCEQALGK [L4G] the protein stability index was 3.76. For MELHRTITYQPAASTKMCEQALGK [L4H], the protein stability index was 2.6. For MELIRTITYQPAASTKMCEQALGK [L4I], the protein stability index was 2.92. MELKRTITYQPAASTKMCEQALGK [L4K] gave a protein stability index of 4.05. Work on MELMRTITYQPAASTKMCEQALGK [L4M] yielded a protein stability index of 1.61. With MELNRTITYQPAASTKMCEQALGK [L4N] the protein stability index was 4.01. With MELPRTITYQPAASTKMCEQALGK [L4P] the protein stability index was 4.25. MELQRTITYQPAASTKMCEQALGK [L4Q] gave a protein stability index of 2.58. MELRRTITYQPAASTKMCEQALGK [L4R] gave a protein stability index of 3.26. Work on MELSRTITYQPAASTKMCEQALGK [L4S] yielded a protein stability index of 3.91. In the case of MELTRTITYQPAASTKMCEQALGK [L4T], the protein stability index is reported as 3.67. MELVRTITYQPAASTKMCEQALGK [L4V] gave a protein stability index of 2.77. Variant MELWRTITYQPAASTKMCEQALGK [L4W] has a protein stability index of 1.7. In the case of MELYRTITYQPAASTKMCEQALGK [L4Y], the protein stability index is reported as 1.98. MELLATITYQPAASTKMCEQALGK [R5A] gave a protein stability index of 1.92. Work on MELLCTITYQPAASTKMCEQALGK [R5C] yielded a protein stability index of 1.47. With MELLDTITYQPAASTKMCEQALGK [R5D] the protein stability index was 3.95. MELLETITYQPAASTKMCEQALGK [R5E] gave a protein stability index of 3.55. With MELLFTITYQPAASTKMCEQALGK [R5F] the protein stability index was 2.18. In the case of MELLGTITYQPAASTKMCEQALGK [R5G], the protein stability index is reported as 3.02. Work on MELLHTITYQPAASTKMCEQALGK [R5H] yielded a protein stability index of 3.02. Variant MELLITITYQPAASTKMCEQALGK [R5I] has a protein stability index of 3.09. Variant MELLKTITYQPAASTKMCEQALGK [R5K] has a protein stability index of 3.52. MELLLTITYQPAASTKMCEQALGK [R5L] gave a protein stability index of 3.55. For MELLMTITYQPAASTKMCEQALGK [R5M], the protein stability index was 2.36. MELLNTITYQPAASTKMCEQALGK [R5N] gave a protein stability index of 3.79. MELLPTITYQPAASTKMCEQALGK [R5P] gave a protein stability index of 3.83. Work on MELLQTITYQPAASTKMCEQALGK [R5Q] yielded a protein stability index of 3.26. For MELLSTITYQPAASTKMCEQALGK [R5S], the protein stability index was 2.71. MELLTTITYQPAASTKMCEQALGK [R5T] showed a protein stability index of 2.47. In the case of MELLVTITYQPAASTKMCEQALGK [R5V], the protein stability index is reported as 4.09. In the case of MELLWTITYQPAASTKMCEQALGK [R5W], the protein stability index is reported as 2.88. MELLYTITYQPAASTKMCEQALGK [R5Y] showed a protein stability index of 1.4. MELLRAITYQPAASTKMCEQALGK [T6A] showed a protein stability index of 1.93. MELLRCITYQPAASTKMCEQALGK [T6C] showed a protein stability index of 1.92. MELLRDITYQPAASTKMCEQALGK [T6D] gave a protein stability index of 3.2. With MELLREITYQPAASTKMCEQALGK [T6E] the protein stability index was 3.17. MELLRFITYQPAASTKMCEQALGK [T6F] gave a protein stability index of 1.68. MELLRGITYQPAASTKMCEQALGK [T6G] showed a protein stability index of 3.05. For MELLRHITYQPAASTKMCEQALGK [T6H], the protein stability index was 2.2. MELLRIITYQPAASTKMCEQALGK [T6I] showed a protein stability index of 2.65. In the case of MELLRKITYQPAASTKMCEQALGK [T6K], the protein stability index is reported as 2.19. MELLRLITYQPAASTKMCEQALGK [T6L] showed a protein stability index of 1.69. In the case of MELLRMITYQPAASTKMCEQALGK [T6M], the protein stability index is reported as 1.73. In the case of MELLRNITYQPAASTKMCEQALGK [T6N], the protein stability index is reported as 2.81. For MELLRPITYQPAASTKMCEQALGK [T6P], the protein stability index was 4.1. MELLRQITYQPAASTKMCEQALGK [T6Q] showed a protein stability index of 1.93. MELLRRITYQPAASTKMCEQALGK [T6R] gave a protein stability index of 2.04. With MELLRSITYQPAASTKMCEQALGK [T6S] the protein stability index was 1.64. For MELLRVITYQPAASTKMCEQALGK [T6V], the protein stability index was 2.55. MELLRWITYQPAASTKMCEQALGK [T6W] gave a protein stability index of 1.99. For MELLRYITYQPAASTKMCEQALGK [T6Y], the protein stability index was 1.6. Variant MELLRTATYQPAASTKMCEQALGK [I7A] has a protein stability index of 2.34. MELLRTCTYQPAASTKMCEQALGK [I7C] showed a protein stability index of 2.1. For MELLRTDTYQPAASTKMCEQALGK [I7D], the protein stability index was 4.13. For MELLRTETYQPAASTKMCEQALGK [I7E], the protein stability index was 2.89. MELLRTFTYQPAASTKMCEQALGK [I7F] gave a protein stability index of 1.94. For MELLRTGTYQPAASTKMCEQALGK [I7G], the protein stability index was 3.72. Variant MELLRTHTYQPAASTKMCEQALGK [I7H] has a protein stability index of 2.8. Work on MELLRTKTYQPAASTKMCEQALGK [I7K] yielded a protein stability index of 3.24. With MELLRTLTYQPAASTKMCEQALGK [I7L] the protein stability index was 2.03. Work on MELLRTMTYQPAASTKMCEQALGK [I7M] yielded a protein stability index of 2.85. In the case of MELLRTNTYQPAASTKMCEQALGK [I7N], the protein stability index is reported as 3.19. MELLRTPTYQPAASTKMCEQALGK [I7P] showed a protein stability index of 2.12. For MELLRTQTYQPAASTKMCEQALGK [I7Q], the protein stability index was 2.79. With MELLRTRTYQPAASTKMCEQALGK [I7R] the protein stability index was 3.09. MELLRTSTYQPAASTKMCEQALGK [I7S] gave a protein stability index of 2.54. MELLRTTTYQPAASTKMCEQALGK [I7T] showed a protein stability index of 1.97. Variant MELLRTVTYQPAASTKMCEQALGK [I7V] has a protein stability index of 1.97. Work on MELLRTWTYQPAASTKMCEQALGK [I7W] yielded a protein stability index of 2.27. For MELLRTYTYQPAASTKMCEQALGK [I7Y], the protein stability index was 2.6. In the case of MELLRTIAYQPAASTKMCEQALGK [T8A], the protein stability index is reported as 2.94. Variant MELLRTICYQPAASTKMCEQALGK [T8C] has a protein stability index of 2.32. In the case of MELLRTIDYQPAASTKMCEQALGK [T8D], the protein stability index is reported as 2.01. Work on MELLRTIEYQPAASTKMCEQALGK [T8E] yielded a protein stability index of 1.78. With MELLRTIFYQPAASTKMCEQALGK [T8F] the protein stability index was 2.17.
